Among the data in PMC3210814 are stoichiometry N and Ki values, retold here.

The target of test [1] is bovine pancreatic trypsin (bovine). Description: enzyme inhibition assay (chromogenic substrate), inhibition against inhibitor concentration; trypsin 400 nM incubated with 0 to 400 nM rSdPI for 30 min; 100 mM Tris-HCl pH 8.0, 10 mM CaCl2, 25°C.
Test [2] shares this target. As to the kind of experiment: enzyme inhibition assay (chromogenic substrate), Lineweaver-Burk plots and replot of the slopes; trypsin 400 nM pre-incubated with the inhibitor for 30 min; 100 mM Tris-HCl pH 8.0, 10 mM CaCl2, 25°C; substrate Nα-benzoyl-L-arginine 4-nitroanilide 0.1 to 0.8 mM; p-nitroaniline read at 405 nm for 5 min.

Positions count from the first letter of the chain named. Numbers in names are those of the source.

Chain of bovine pancreatic trypsin (bovine) (P00760 24-246): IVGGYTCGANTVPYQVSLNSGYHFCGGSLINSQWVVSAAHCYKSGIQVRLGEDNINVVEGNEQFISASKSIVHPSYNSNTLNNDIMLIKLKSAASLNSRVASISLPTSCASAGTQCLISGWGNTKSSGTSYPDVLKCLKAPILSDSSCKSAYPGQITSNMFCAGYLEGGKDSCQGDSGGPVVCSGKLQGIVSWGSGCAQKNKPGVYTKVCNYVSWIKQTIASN

B1: recombinant SdPI peptide (scorpion-derived protease inhibitor), wild type (peptide)
chain: KNKCQLPSDVGKGKASFTRYYYNEEGGKCETFIYGGVGGNSNNFLTKEDCCRECAQGSC
One may read the stoichiometry N as the number of molecules, sites or subunits per partner or assembly. The Ki is the dissociation constant of the complex between target and ligand, obtained from inhibition or displacement. Higher therefore signals lower affinity. B1 came in with a stoichiometry N in test [1] of 1. The same molecule displayed a Ki in test [2] of 160 nM.

B2: SdPI K12A mutant (peptide)
chain: B1 chain with K12A
As for B2, the Ki in test [2] was determined as 290 nM.

B3: SdPI Ala15Phe mutant (peptide)
chain: B1 chain with A15F
With B3, the Ki in test [2] was 62000 nM.

B4: SdPI G13F mutant (peptide)
chain: B1 chain with G13F
As for B4, in test [2], the Ki was 260 nM.
